Here are results for three molecules from patent publication US20230277593A1.

Assay [1] has as its target Epidermal Growth Factor Receptor (EGFR) on target cells (human), P00533. The assay can be described thus: cell-based or functional assay.
Assay [2] has as its target HLA-A*02 on target cells (human). The assay can be described thus: cell-based or functional assay.

B1: CT-487 EGFR scFv CAR activator (scFv, not shown: small tags and cut ends)
scFv: QVQLVQSGAEVKKPGASVKVSCKASGYTFTSHWMHWVRQAPGQGLEWIGEFNPSNGRTNYNEKFKSKATMTVDTSTNTAYMELSSLRSEDTAVYYCASRDYDYDGRYFDYWGQGTLVTVSSGGGGSGGGGSGGGGSGGDIQMTQSPSSLSASVGDRVTITCSASSSVTYMYWYQQKPGKAPKLLIYDTSNLASGVPSRFSGSGSGTDYTFTISSLQPEDIATYYCQQWSSHIFTFGQGTKVEIK
In assay [1], B1 displayed an Activator EC50 (ng); EGFR mRNA titrated into EGFR negative target cells of 3500 ng.

B2: HLA-A*02 PA2.1 scFv LIR1 inhibitor (C2162) (scFv, part only; not given: LIR-1 hinge, transmembrane and intracellular, part only)
scFv, part: QVQLVQSGAEVKKPGSSVKVSCKASGYTFTSYHIHWVRQAPGQGLEWIGWIYPGNVNTEYNEKFKGKATITADESTNTAYMELSSLRSEDTAVYYCAREEITYAMDYWGQGTLVTVSSGGGGSGGGGSGGGGSGGDIQMTQSPSTLSASVGDRVTITCRSSQSIVHSNGNTYLEWYQQKPGKAPKLLIYKVSNRFSGVPARFSGSGSGTEFTLTISSLQPDDFATYYCFQGSHVPRTFGQGTKVEVK
With B2, in assay [2], the Human Blocker EC50 (ng), with activator CT486; HLA-A*02 mRNA titrated into target cells was found to be 4000 ng; the Human Blocker EC50 (ng), with activator CT487; HLA-A*02 mRNA titrated into target cells turned out to be 2900 ng; the Human Blocker EC50 (ng), with activator CT488; HLA-A*02 mRNA titrated into target cells was determined as 3500 ng; the Human Blocker EC50 (ng), with activator CT489; HLA-A*02 mRNA titrated into target cells was 3200 ng. Also, in assay [2], the selectivity ratio (humanized blocker C2162 paired with CT486) came out at 17; the selectivity ratio (humanized blocker C2162 paired with CT487, first mention) is 5; the selectivity ratio (humanized blocker C2162 paired with CT487 as printed, second mention) stood at 5; the selectivity ratio (humanized blocker C2162 paired with CT489) turned out to be 24.2.

B3: HLA-A*02 PA2.1 scFv LIR1 inhibitor (C1765) (scFv, part only; not given: LIR-1 hinge, transmembrane and intracellular, part only)
scFv, part: DVLMTQTPLSLPVSLGDQASISCRSSQSIVHSNGNTYLEWYLQKPGQSPKLLIYKVSNRFSGVPDRFSGSGSGTDFTLKISRVEAEDLGVYYCFQGSHVPRTSGGGTKLEIKGGGGSGGGGSGGGGSGGQVQLQQSGPELVKPGASVRISCKASGYTFTSYHIHWVKQRPGQGLEWIGWIYPGNVNTEYNEKFKGKATLTADKSSSTAYMHLSSLTSEDSAVYFCAREEITYAMDYWGQGTSVTVSS
In assay [2], B3 came in with a Mouse Blocker EC50 (ng), with activator CT486; HLA-A*02 mRNA titrated into target cells of 4700 ng; a Mouse Blocker EC50 (ng), with activator CT487; HLA-A*02 mRNA titrated into target cells of 3500 ng; a Mouse Blocker EC50 (ng), with activator CT488; HLA-A*02 mRNA titrated into target cells of 4700 ng; a Mouse Blocker EC50 (ng), with activator CT489; HLA-A*02 mRNA titrated into target cells of 4200 ng. In assay [2], the selectivity ratio (mouse blocker C1765 paired with CT486) amounted to 15.7; the selectivity ratio (mouse blocker C1765 paired with CT487, first mention) worked out at 18.4; the selectivity ratio (mouse blocker C1765 paired with CT487 as printed, second mention) turned out to be 21.2; the selectivity ratio (mouse blocker C1765 paired with CT489) came out at 21.6. The shift of CAR EMAX (Jurkat NFAT-luciferase, with EGFR CAR CT479, HeLa target cells) in assay [2] is > 5 fold.
